Results as given in the supplement of paper PMC10567573.

B1: ESRRA (parent)
chain: SLPLQDELAFAEDLVLDEEGARAA
B2: KLHDC10 (parent)
chain: CPIIRIPNRFLRGHRPPPARSGHR

Variants of: B1
Assay: protein stability index of a GFP-peptide fusion (GPS, HEK-293T) (PSI 1-6); higher = more stable
Details: c terminus: a fixed tail appended
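Further: lentivirally expressed fusions sorted by FACS into six bins by GFP to DsRed ratio, PSI derived from sequencing read proportions per bin multiplied by bin number.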

Protein stability index, by site and new letter:
L4: E 5.59 | F 4.96 | Y 5.26 | C 5.1 | M 3.51 | T 5.43 | A 5.45
E18: H 2.56 | P 2.56 | A 2.7 | Q 2.8 | I 3.81 | N 3.68
E12: G 4.91 | T 5.41 | H 4.72 | V 4.82 | F 4.52
A9: T 2.63 | K 2.63 | F 4.56 | C 4.11 | Y 4.19
G20: M 2.51 | I 3.08 | C 2.6 | E 5.11 | S 4.04 | D 3.46
F10: K 2.83 | Y 3.54 | H 3.44 | P 5.69 | M 2.52 | Q 3.98 | G 4.26
S1: N 2.81 | M 2.66 | W 2.73 | E 2.94 | A 3.94 | L 2.26
E7: I 2.46 | T 4.4 | F 3.92 | N 4.51 | C 3.5
Q5: R 3.37 | N 3.77 | H 3.66 | W 2.29 | V 3.64 | A 3.25
D17: G 2.15 | V 3.19 | M 2.03 | A 2.89 | T 3.57 | E 3.7 | S 2.69 | F 2.93 | P 4.71
R22: C 3.2 | M 3.42 | P 3.01 | W 2.53
D13: Y 2.64 | E 2.92
A23: C 2.98 | N 3.21 | L 2.56 | P 3.35 | V 3.21 | H 2.95 | T 3.08 | W 2.44
L2: A 4.07 | H 2.78 | T 3.52 | E 5.29 | S 4.21 | K 4.4
D6: Q 2.91 | L 3.26 | V 2.5 | M 3.77
P3: H 4.45 | L 4.84 | M 4.18
L8: S 5.63 | W 5.29 | Q 5.29 | T 4.84 | C 5.51 | R 5.66 | E 5.55 | I 5.34
A11: Q 5.56 | K 4.98 | P 5.53 | M 5.4
A21: T 3.75 | G 2.77 | F 3.5
A24: I 2.92 | N 2.28
V15: S 5.76 | D 4.89 | Y 5.25
L16: D 5.66 | P 5.75
E19: C 2.79 | Y 2.77 | F 2.25
L14: I 4.3

Variants of: B2
Assay: as above
Details: c terminus: a fixed tail appended

Protein stability index, by site and new letter:
I3: S 2.56 | R 2.62 | M 2.09 | T 2.36 | D 2.16 | A 1.56 | P 4.2 | V 1.71 | E 3.25 | K 2.81 | F 1.47 | Y 1.6 | N 3.74 | H 2.16 | C 1.78 | L 2.15
G13: N 2.2 | W 2 | C 1.53 | M 1.9 | I 2.04 | R 1.74 | L 1.85 | E 1.38 | Q 2.36 | T 2.65 | H 1.98 | K 1.9 | Y 1.88 | A 2.21 | D 1.55 | P 1.48 | F 1.81
N8: K 2.42 | V 2.79 | L 2.21 | C 1.94 | E 2.15 | R 2.54 | M 1.97 | F 1.81 | I 2.36 | Y 2.07 | Q 1.3 | D 2.15 | W 2.59 | A 1.46 | T 2.52 | S 2.44 | H 2.69 | G 1.38
C1: Q 4.42 | D 2.89 | A 4.28 | F 2.15 | R 3.57 | L 2.68 | S 3.41 | T 3.29 | N 3.73 | P 3.87 | I 3.59 | K 3.56 | M 3.21 | E 3.76 | W 1.59 | H 2.91 | Y 1.97
I6: H 4.75 | M 2.64 | P 4.35 | V 2.77 | Y 4.09 | N 4.01 | R 3.69 | D 4.25 | L 4.07 | C 2.4 | F 4.26 | E 3.98 | G 3.96 | S 2.04 | W 4.13 | A 3.29 | Q 2.77 | K 3.37
R12: G 1.8 | L 2.25 | A 1.71 | C 1.28 | Y 2.43 | V 2.75 | H 2.69 | Q 2.07 | K 2.09 | E 2.47 | N 2.27 | W 2.5 | D 1.92 | S 1.9 | M 1.06 | P 1.63 | F 1.75 | I 2.32 | T 2.02
R9: M 1.42 | P 3.47 | N 2.01 | V 2.43 | Y 1.71 | D 2.1 | S 2.12 | A 1.61 | Q 2.47 | T 1.46 | F 2.94 | K 1.37 | G 1.53 | C 2.48 | L 2.36 | H 2.32
R5: I 2.81 | W 2.73 | V 2.6 | P 3.89 | F 2.62 | N 4.4 | G 3.42 | T 3.81 | E 5.03 | D 4.21 | L 1.55 | M 1.6 | Y 2.51 | K 3.59 | H 3.85 | Q 3.54 | A 3.57
P7: Q 3.04 | A 2.38 | H 3.62 | E 1.57 | L 2.25 | M 3.29 | I 2.39 | T 2.23 | Y 2.11 | G 3.71 | C 1.89 | V 1.86 | F 2.28 | D 2.91 | K 2.7 | R 3.66 | S 3.13 | N 2.6 | W 3.51
I4: E 4.56 | W 3.12 | A 2.7 | G 3.77 | C 2.31 | R 4.37 | M 1.86 | D 4.49 | N 4.38 | Y 3.02 | P 4.21 | T 3.23 | K 3.06 | V 2.42 | L 2.4 | F 2.46 | Q 3.94 | S 3.22
L11: W 1.7 | S 2.46 | F 1.84 | K 3.08 | Q 1.35 | V 2.83 | H 1.69 | T 1.96 | E 1.31 | G 2.3 | R 2.54 | C 1.4 | M 2.89 | Y 2 | D 1.42
P2: S 1.31 | I 2.6 | D 2.32 | G 2.41 | A 3.75
H14: I 1.87 | C 1.48 | E 2.22 | A 1.96 | G 1.46 | D 1.69 | F 1.83
F10: T 2.11 | Q 2.63 | Y 1.8 | E 1.71 | H 2.25 | P 1.45 | C 2.48 | R 2.65 | S 2.12 | V 1.4 | W 2.38 | G 1.81 | L 2.48 | M 1.82 | K 1.71 | I 2.46 | A 2.85
